According to patent US11584938B2, “Plant EPSPS mutant containing L195P and S247G mutations and encoding gene and use thereof” (GEVOTO LLC, priority 2017, dated 2023):
Residue numbers refer to the chain shown, from its start.

B1: T1: wheat EPSPS mutant, SEQ ID NO: 16, mutation S269(247)G (protein)
chain: MATSVAAPAAPAGAEEVVLQPIREISGAVQLPGSKSLSNRILLLSALSEGTTVVDNLLNSEDVHYMLEALEALGLSVEADKVAKRAVVVGCGGRFPVEKDAKEEVKLFLGNAGTAMRPLTAAVVAAGGNATYVLDGVPRMRERPIGDLVVGLQQLGADVDCFLGTNCPPVRINGKGGLPGGKVKLSGSISSQYLSSLLMAAPLALEDVEIEIIDKLISVPYVEMTLKLMEHFGVTAEHSDSWDRFYIKGGQKYKSPGNAYVEGDASSAGYFLAGAAITGGTVTVEGCGTTSLQGDVKFAEVLEMMGAKVTWTDTSVTVTGPPRQPFGRKHLKAVDVNMNKMPDVAMTLAVVALFADGPTAIRDVASWRVKETERMVAIRTELTKLGATVEEGPDYCIITPPEKLNITAIDTYDDHRMAMAFSLAACAEVPVTIRDPGCTRKTFPNYFDVLSTFVKN
B2: T2: wheat EPSPS mutant, SEQ ID NO: 18, merely containing the mutation P118(101)S; control (protein)
chain: B1 chain with P118S, G269S
B3: T4: wheat EPSPS mutant, SEQ ID NO: 22, mutation L216(195)P (protein)
chain: B1 chain with L216P, G269S
B4: T3: wheat EPSPS mutant, SEQ ID NO: 20, mutations S269(247)G and P118(101)S (protein)
chain: B1 chain with P118S

Tested on: transgenic rice plants
Experiment: glyphosate resistance of the EPSPS mutant in transgenic rice plants sprayed with Roundup 41% ammonium glyphosate
Format: in vivo, rice (Nipponbare)
Method in brief: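 EPSPS mutant genes were cloned into pGVP1 and introduced into Nipponbare rice embryo-derived calluses via Agrobacterium EHA105 (OD 0.2, 10 min infection, 2–3 days co-culture at 25 °C in the dark). Calluses went through recovery, two 14-day screening rounds at 30 °C, two differentiation rounds and rooting to regenerate transgenic plants.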

[1] = 1× dosage 1060 g/hectare glyphosate sprayed, recorded on 10th day
[2] = 2× dosage 2120 g/hectare sprayed to plants surviving 1×, recorded 10 days later
[3] = 5× dosage 5300 g/hectare sprayed to plants surviving 2×, recorded 10 days later
[4] = 20× dosage 21200 g/hectare sprayed to plants surviving 5×, recorded 10 days later

Molecule | %++&+++ (percentage of plant having medium and high glyphosate resistance to the total number of plants observed) [1] [%] | number of plants denoted by + (low glyphosate resistance) [1] | number of plants denoted by ++ (medium glyphosate resistance) [1] | number of plants denoted by +++ (high glyphosate resistance) [1] | number of plants denoted by − (no glyphosate resistance) [1] | glyphosate resistance / survival of the rice transformed by the EPSPS, in words (1× glyphosate dosage) | %++&+++ (percentage of plant having medium and high glyphosate resistance to the total number of plants observed) [2] [%] | number of plants denoted by + (low glyphosate resistance) [2] | number of plants denoted by ++ (medium glyphosate resistance) [2] | number of plants denoted by +++ (high glyphosate resistance) [2] | number of plants denoted by − (no glyphosate resistance) [2] | &++&+++ (percentage of plant having medium and high glyphosate resistance to the total number of plants observed) [3] [%] | number of plants denoted by + (low glyphosate resistance) [3] | number of plants denoted by ++ (medium glyphosate resistance) [3] | number of plants denoted by +++ (high glyphosate resistance) [3] | number of plants denoted by − (no glyphosate resistance) [3] | &++&+++ (percentage of plant having medium and high glyphosate resistance to the total number of plants observed) [4] [%] | number of plants denoted by + (low glyphosate resistance) [4] | number of plants denoted by ++ (medium glyphosate resistance) [4] | number of plants denoted by +++ (high glyphosate resistance) [4] | further results
B1 | 27.0 | 28 | 15 | 2 | 18 | obviously superior to that of the rice seedlings transformed by T0 | 1.6 | 32 | 1 | 0 | 30 | 0.0 | 2 | 0 | 0 | 61 | 0.0 | 0 | 0 | 0 | glyphosate resistance / survival of the rice transformed by the EPSPS, in words (2× glyphosate dosage): some of the transgenic rice seedlings transformed by T4, T1 and T5 still survived; glyphosate resistance / survival of the rice transformed by the EPSPS, in words (5× glyphosate dosage): some of the transgenic rice seedlings transformed by T4, T1 and T5 still survived; number of plants denoted by − (no glyphosate resistance) [4]: 63
B2 | 52.8 | 13 | 15 | 13 | 12 | had relatively high resistance to glyphosate | 7.5 | 26 | 3 | 1 | 23 | 0.0 | 21 | 0 | 0 | 32 | 0.0 | 11 | 0 | 0 | glyphosate resistance / survival of the rice transformed by the EPSPS, in words (5× glyphosate dosage): none of the rice seedlings containing the wheat EPSPS mutant T2 achieved the level of medium glyphosate resistance; number of plants denoted by − (no glyphosate resistance) [4]: 42; glyphosate resistance / survival of the rice transformed by the EPSPS, in words (20× glyphosate dosage): none of the rice seedlings containing the wheat EPSPS mutant T2 achieved the level of medium glyphosate resistance
B3 | 35.6 | 30 | 18 | 8 | 7 | obviously superior to that of the rice seedlings transformed by T0 | 18.2 | 40 | 0 | 4 | 34 | 0.0 | 12 | 0 | 0 | 66 | 0.0 | 0 | 0 | 0 | glyphosate resistance / survival of the rice transformed by the EPSPS, in words (2× glyphosate dosage): some of the transgenic rice seedlings transformed by T4, T1 and T5 still survived; glyphosate resistance / survival of the rice transformed by the EPSPS, in words (5× glyphosate dosage): some of the transgenic rice seedlings transformed by T4, T1 and T5 still survived; number of plants denoted by − (no glyphosate resistance) [4]: 78
B4 | 71.0 | 27 | 33 | 77 | 18 | had relatively high resistance to glyphosate | 51.0 | 47 | 46 | 33 | 29 | 25.8 | 75 | 38 | 2 | 40 | 3.2 | 57 | 5 | 0 | number of plants denoted by − (no glyphosate resistance) [4]: 93
